Assay results: patent US7691567B2, “Methods and compositions relating to fortilin, an anti-apoptotic molecule, and modulators of fortilin” (Board of Regents, the University of Texas System, priority 2000, dated 2010)

Columns and labels:
FLAG-MCL1 = FLAG-MCL1 (Homo sapiens, UniProt Q07820); format: binding; conditions: COS cell lysate, anti-HA immunoprecipitation
MCL1 = format: cell-based
p53 = p53 (Homo sapiens, UniProt P04637); test: Coimmunoprecipitation of fortilin and p53 from U2OS cell lysates; format: binding; design: endogenous in cells; host or cells: U2OS
Procedure: As in example 2, studies were initiated to determine whether p53 and Fortilin specifically interact in U2OS cells. Six million U2OS cells stably expressing either HA-fortilin or HA-only were suspended in lysis-binding-wash buffer (50 mM HEPES, pH7.5, 70 mM KCl, 0.5 mM ATP, 5 mM MgSO4, 1 mM DTT, 0.1% NP40, 2 mg/mL BSA, Aprotinin, PMSF, MG132 and protease inhibitor cocktail). Cells were then mechanically disrupted by nitrogen excavitation method. Cleared total cell lysates were incubated with […] anti-HA antibody (3F10, Roche), followed by the incubation with anti-mouse IgG conjugated to magnetic beads (Dynal USA) and extensive wash with lysis-binding-wash buffer.
Further experiments were conducted to determine in vivo immunoprecipitation of fortilin by p53. Twenty million U2OS cells were suspended in lysis-binding buffer (50 mM HEPES, pH7.5, 70 mM KCl, 0.5 mM ATP, 5 mM MgSO4, 1 mM DTT, 0.001% NP40, 2 mg/mL BSA, Aprotinin, PMSF, MG132 and protease inhibitor cocktail). Cells were then mechanically disrupted by nitrogen excavitation method. Cleared total cell lysates were divided equally into two eppendorf tubes. To the first tube, anti-p53 antibody (DO-1, […]) was added, while […] control monoclonal antibody was added to the second tube. After incubation, formed complexes were precipitated by goat anti-mouse IgG conjugated to magnetic beads (Dynal USA), followed by extensive wash. […]

Chain of p53 (P04637 whole entry, species assumed): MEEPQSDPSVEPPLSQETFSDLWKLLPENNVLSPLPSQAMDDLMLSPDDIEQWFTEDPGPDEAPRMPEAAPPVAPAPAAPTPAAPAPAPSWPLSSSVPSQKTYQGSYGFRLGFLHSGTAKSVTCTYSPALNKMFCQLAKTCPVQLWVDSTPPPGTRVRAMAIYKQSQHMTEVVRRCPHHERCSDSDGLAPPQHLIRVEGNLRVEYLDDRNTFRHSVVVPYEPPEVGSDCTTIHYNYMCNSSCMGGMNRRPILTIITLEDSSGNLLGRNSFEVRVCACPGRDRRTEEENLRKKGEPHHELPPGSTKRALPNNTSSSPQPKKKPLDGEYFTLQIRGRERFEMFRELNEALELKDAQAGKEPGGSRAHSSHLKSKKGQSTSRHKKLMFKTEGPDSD
Chain of FLAG-MCL1 (Q07820 whole entry): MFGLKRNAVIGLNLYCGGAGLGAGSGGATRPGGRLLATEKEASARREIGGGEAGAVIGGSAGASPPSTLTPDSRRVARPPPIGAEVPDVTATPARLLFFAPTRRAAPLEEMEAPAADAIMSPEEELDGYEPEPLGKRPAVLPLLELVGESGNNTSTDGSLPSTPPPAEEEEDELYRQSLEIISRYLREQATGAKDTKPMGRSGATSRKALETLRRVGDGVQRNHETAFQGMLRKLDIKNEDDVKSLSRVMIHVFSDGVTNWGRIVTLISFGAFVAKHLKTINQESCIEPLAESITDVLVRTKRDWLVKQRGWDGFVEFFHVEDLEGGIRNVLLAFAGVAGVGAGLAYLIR

## Fortilin-HA: influenza hemagglutinin-tagged Fortilin
FLAG-MCL1
  co-precipitation of FLAG-MCL1 in vivo: FLAG-MCL1 was co-precipitated only in the presence of immunoprecipitated Fortilin-HA
MCL1
  intracellular localization of MCL1: MCL1 was consistently localized in the nucleus just as it was in the cells transfected with empty vector
p53
  co-precipitation of fortilin and p53 in vivo: the presence of fortilin was necessary and sufficient for the co-precipitation of p53
